According to patent publication US20260137822A1 (ABDERA THERAPEUTICS, published 2026):
Changes are numbered by the printed parent chain.

B1: Anti-FOLR1x2; Anti-DLL3x2; (GGGGS)3 tetramer (bispecific antibody)
chain (part 1 of 2): QVQLVESGGGLVQPGGSLRLSCAASGFTVSNSVMAWYRQTPGNEREFVAIINSIGITNYADSVKGRFTISRDNSKNTLYLQMNSLRAEDTAVYVCNRNFDRIYWGQGTLVTVSSGGGGSGGGGSGGGGSEVQLVESGGGEVQPGGSLRLSCAASGSIFSINAMGWYRQAPGKQRELVAGFTGDTNTIYAESVKGRFTISRDNAKNTVYLQMSSLRAEDTAVYYCAADVQLFSRDYEFYWGQGTLVTVKP
chain (part 2 of 2): not shown
notes: entry chosen by mutation status; also called bispecific tetramer GGGGSx3; not shown: hinge
B2: Anti-FOLR1x2; Anti-DLL3x2; (GGS)4 tetramer (bispecific antibody)
chain (part 1 of 2): QVQLVESGGGLVQPGGSLRLSCAASGFTVSNSVMAWYRQTPGNEREFVAIINSIGITNYADSVKGRFTISRDNSKNTLYLQMNSLRAEDTAVYVCNRNFDRIYWGQGTLVTVSSGGSGGSGGSGGSEVQLVESGGGEVQPGGSLRLSCAASGSIFSINAMGWYRQAPGKQRELVAGFTGDTNTIYAESVKGRFTISRDNAKNTVYLQMSSLRAEDTAVYYCAADVQLFSRDYEFYWGQGTLVTVKP
chain (part 2 of 2): not shown
notes: As m61 with the (GGS)4 linker; also called bispecific tetramer GGSx4; not shown: hinge
B3: H135 (Fc fusion)
chain (part 1 of 2): QVQLQESGGGSVQAGGSLKLTCAASGYIFNSCGMGWYRQSPGRERELVSRISGDGDTWHKESVKGRFTISQDNVKKTLYLQMNSLKPEDTAVYFCAVCYNLETYWGQGTQVTVSS
chain (part 2 of 2): APEAEGAPSVFLFPPKPKDTLMISRTPEVTCVVVDVSHEDPEVKFNWYVDGVEVHNAKTKPREEQYNSTYRVVSVLTVLAQDWLNGKEYKCKVSNKALPSSIEKTISKAKGQPREPQVYTLPPSREEMTKNQVSLTCLVKGFYPSDIAVEWESNGQPENNYKTTPPVLDSDGSFFLYSKLTVDKSRWQQGNVFSCSVMHEALHNHYTQKSLSLSPG
notes: not shown: hinge; copies: 2 + 2
B4: H137 (Fc fusion)
chain (part 1 of 2): B3 chain (part 1 of 2)
chain (part 2 of 2): B3 chain (part 2 of 2) with A80H, H205Q
notes: as for B3
B5: D134 (Fc fusion)
chain (part 1 of 2): EVQLVESGGGEVQPGGSLRLSCAASGSIFSINAMGWYRQAPGKQRELVAGFTGDTNTIYAESVKGRFTISRDNAKNTVYLQMSSLRAEDTAVYYCAADVQLFSRDYEFYWGQGTLVTVKP
chain (part 2 of 2): B3 chain (part 2 of 2) with A80H
notes: as for B3
B6: D136 (Fc fusion)
chain (part 1 of 2): B5 chain (part 1 of 2)
chain (part 2 of 2): B3 chain (part 2 of 2)
notes: as for B3
B7: D138 (Fc fusion)
chain (part 1 of 2): B5 chain (part 1 of 2)
chain (part 2 of 2): B3 chain (part 2 of 2) with A80H, H205Q
notes: as for B3

Each binder was assayed against T1, FOLR1 on cells (OVCAR3, OV-90) (UniProt P15328 25-234) (assay: binding to FOLR1-positive OVCAR3 cells).
T1 construct: whole, on cells; also called FOLR1-positive OVCAR3 cells; FOLR1 expressing OV-90 cells
T1 sequence (P15328 25-234): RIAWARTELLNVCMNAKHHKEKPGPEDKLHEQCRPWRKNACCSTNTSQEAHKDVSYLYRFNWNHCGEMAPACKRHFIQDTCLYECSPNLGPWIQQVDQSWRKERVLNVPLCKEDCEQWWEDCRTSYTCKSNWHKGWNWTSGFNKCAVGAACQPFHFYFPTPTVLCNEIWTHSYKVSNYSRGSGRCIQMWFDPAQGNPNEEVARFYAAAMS

Row | Binder | binding result
1 | B1 | binds
2 | B2 | binds

The binders below were run against FcγRI (biotinylated, Acro Biosystems) (UniProt P12314 16-288, biotinylated) (assay: BLI, biotinylated FcγR on SA sensor).
Sequence of FcγRI (biotinylated, Acro Biosystems) (P12314 16-288 limits assumed): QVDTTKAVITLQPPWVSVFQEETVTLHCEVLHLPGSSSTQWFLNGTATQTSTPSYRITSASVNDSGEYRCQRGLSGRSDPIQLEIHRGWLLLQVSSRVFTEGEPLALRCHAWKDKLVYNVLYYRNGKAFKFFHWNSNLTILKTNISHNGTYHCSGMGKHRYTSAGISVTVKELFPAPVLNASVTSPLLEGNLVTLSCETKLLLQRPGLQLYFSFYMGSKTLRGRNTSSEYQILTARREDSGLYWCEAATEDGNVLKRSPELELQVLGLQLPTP

Row | Binder | binding result
3 | B3 | no binding
4 | B4 | no binding
5 | B5 | no binding
6 | B6 | no binding

The binders below were run against T2, FcγRIIa (H167) (biotinylated, Acro Biosystems) (UniProt P12318 36-218, biotinylated) (assay: BLI, biotinylated FcγR on SA sensor).
T2 sequence (looked up): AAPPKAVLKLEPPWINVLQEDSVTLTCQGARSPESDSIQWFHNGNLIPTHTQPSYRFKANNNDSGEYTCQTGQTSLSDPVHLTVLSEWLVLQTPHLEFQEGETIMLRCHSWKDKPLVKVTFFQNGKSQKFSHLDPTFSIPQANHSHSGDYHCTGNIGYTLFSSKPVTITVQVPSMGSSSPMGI

Row | Binder | binding result
7 | B3 | no binding
8 | B4 | no binding

The binders below were run against FcγRIIIa (F176) (biotinylated, Acro Biosystems) (UniProt P08637 17-208, biotinylated) (assay: BLI, biotinylated FcγR on SA sensor).
Sequence of FcγRIIIa (F176) (biotinylated, Acro Biosystems) (P08637 17-208 limits assumed): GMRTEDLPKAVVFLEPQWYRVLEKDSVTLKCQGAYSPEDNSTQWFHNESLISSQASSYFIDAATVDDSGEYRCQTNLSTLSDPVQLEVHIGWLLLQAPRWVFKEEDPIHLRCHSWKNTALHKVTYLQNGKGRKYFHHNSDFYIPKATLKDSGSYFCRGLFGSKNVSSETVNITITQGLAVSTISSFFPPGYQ

Row | Binder | binding result
9 | B3 | no binding
10 | B4 | no binding
11 | B5 | no binding
12 | B6 | no binding
13 | B7 | no binding

Each binder was assayed against FcγRIIIa (V176) (biotinylated, Acro Biosystems) (UniProt P08637 17-208, biotinylated) (assay: BLI, biotinylated FcγR on SA sensor).
Sequence of FcγRIIIa (V176) (biotinylated, Acro Biosystems) (P08637 17-208 F176V limits assumed): as the sequence (P08637 17-208 limits assumed) above, with F160V counted along it

Row | Binder | binding result
14 | B3 | no binding
15 | B4 | no binding
16 | B5 | no binding
17 | B6 | no binding
18 | B7 | no binding

The binders below were run against T3, human FOLR1 (antigen of the Octet assay) (human, UniProt P15328 25-234, limits assumed) (assay: BLI (Octet), tetramer captured on AHC sensor, antigen as analyte).
T3 construct: also called hFOLR1
T3 sequence (P15328 25-234 limits assumed): as the sequence (P15328 25-234) above

Row | Binder | binding result
19 | B1 | binds
20 | B2 | binds

These binders were tested against T4, murine FOLR1 (antigen of the Octet assay) (murine, UniProt P35846 25-232, limits assumed) in the same assay as above.
T4 construct: also called mFOLR1
T4 sequence (P35846 25-232 limits assumed): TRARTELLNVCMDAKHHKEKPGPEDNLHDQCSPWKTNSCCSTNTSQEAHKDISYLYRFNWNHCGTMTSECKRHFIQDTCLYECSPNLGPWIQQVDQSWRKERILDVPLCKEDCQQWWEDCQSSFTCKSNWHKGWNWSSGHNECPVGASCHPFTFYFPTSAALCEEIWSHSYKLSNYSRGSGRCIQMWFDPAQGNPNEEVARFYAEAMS

Row | Binder | binding result
21 | B1 | binds
22 | B2 | binds

Each binder was assayed against T5, human DLL3 (antigen of Example 30) (human, UniProt Q9NYJ7 27-492, limits assumed) in the same assay as above.
T5 construct: also called hDLL3
T5 sequence (looked up): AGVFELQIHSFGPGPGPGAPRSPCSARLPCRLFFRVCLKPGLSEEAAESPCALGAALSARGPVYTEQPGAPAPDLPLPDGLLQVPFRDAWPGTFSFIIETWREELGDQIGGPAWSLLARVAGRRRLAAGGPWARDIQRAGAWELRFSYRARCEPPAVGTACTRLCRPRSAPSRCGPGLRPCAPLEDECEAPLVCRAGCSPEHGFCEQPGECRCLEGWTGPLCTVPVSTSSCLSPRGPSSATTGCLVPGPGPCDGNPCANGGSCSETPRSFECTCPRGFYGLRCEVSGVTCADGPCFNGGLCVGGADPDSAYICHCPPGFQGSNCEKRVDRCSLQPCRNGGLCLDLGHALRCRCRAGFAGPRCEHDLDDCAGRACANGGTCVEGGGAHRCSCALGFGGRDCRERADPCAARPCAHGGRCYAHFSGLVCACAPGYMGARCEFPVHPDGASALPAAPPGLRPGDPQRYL

Row | Binder | binding result
23 | B1 | binds
24 | B2 | binds

What follows are binders tested against T6, FcγRIIa (R167) (biotinylated, Acro Biosystems) (UniProt P12318 36-218, biotinylated) (assay: BLI (Octet), biotinylated FcγR on SA sensor, steady state analysis).
T6 sequence (looked up): T2 sequence (looked up) with H132R

Row | Binder | Kd [nM]
25 | B3 | 1200
26 | B4 | 1200
27 | B5 | 460
28 | B6 | 570
29 | B7 | 520

The binders below were run against T7, FcγRIIb/c (biotinylated, Acro Biosystems) (UniProt P31994 46-217, biotinylated) in the same assay as above.
T7 sequence (looked up): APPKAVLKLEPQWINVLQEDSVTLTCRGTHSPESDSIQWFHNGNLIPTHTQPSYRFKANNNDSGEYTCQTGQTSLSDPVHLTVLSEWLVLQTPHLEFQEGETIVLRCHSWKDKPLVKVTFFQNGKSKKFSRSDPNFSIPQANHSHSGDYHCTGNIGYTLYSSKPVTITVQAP

Row | Binder | Kd [nM]
30 | B5 | 1100
31 | B6 | 2200
32 | B7 | 770

Each binder was assayed against biotinylated hFcRn (Sino Biological, Cat #: CT071-H27H-B) (human, UniProt P55899 24-297; P61769 21-119, biotinylated) (assay: BLI (Octet), biotinylated hFcRn on SA sensor, pH 6.0, 2:1 heterogeneous ligand model).

Row | Binder | Kd [nM]
33 | B5 | 1.9
